The text below walks through data of article PMC9266650 (2022).

Read-outs that look alike come from different tables or passages of the source.

Assay [1] concerns the target T1, Skeletal actin, unmodified (0% ADPR-actin control) ( (purified from rabbit or …, UniProt P68135 1-377)).
The target in assay [2] is T2, T148-ADP-ribosylated-actin (100% TccC3-ADP-ribosylated actin) ( (purified from rabbit or …, UniProt P68135 1-377)).
In assay [3] the target is T2, T148-ADP-ribosylated-actin (100% …). Nature of the assay: FP.
Assay [4] addresses T1, Skeletal actin, unmodified (0% …). Kind of assay: FP.

B1: Actin-depolymerizing factor (natural protein)
chain: MASGVQVADEVCRIFYDMKVRKCSTPEEIKKRKKAVIFCLSADKKCIIVEEGKEILVGDVGVTITDPFKHFVGMLPEKDCRYALYDASFETKESRKEELMFFLWAPELAPLKSKMIYASSKDAIKKKFQGIKHECQANGPEDLNRACIAEKLGGSLIVAFEGCPV
Consider B1, for which the Kd in assay [1] stood at 21.6 nM; in assay [2], 331 nM.

In assay [3], SDKPDMAEIEKFDKSKLKKTETQEKNPLPSKETIEQEKQAGES (not fully specified; ADP-ribose on threonine-148 (T148)) showed a Kd of 2440 nM. SDKPDMAEIEKFDKSKLKKTETQEKNPLPSKETIEQEKQAGES (not fully specified): binding in assay [4] was put at a Kd of 380 nM.

By Kd is commonly meant the constant that tells how readily two partners part at equilibrium. Higher therefore signals weaker binding.
